Experimental data: US20090305946A1

Legend:
[1] = target: full-length human Presenilin-1 (human) (UniProt P49768); experiment: cell-based or functional assay
[2] = target: full-length human Presenilin-1 (human) (UniProt P49768); experiment: [^35S]-GTPγS labelling of extracts of co-transfected ES cells, immunoprecipitation with anti-PS-1
[3] = target: full-length human Presenilin-1 (human) (UniProt P49768); experiment: ^35S-GTPγS incorporation in extracts of co-transfected ES cells, immunoprecipitation with anti-PS-1 loop MAb, scintillation counting
[4] = target: full-length human Presenilin-2 (human) (UniProt P49810); experiment: ^35S-GTPγS incorporation in extracts of co-transfected ES cells, immunoprecipitation with anti-PS MAb, scintillation counting
[5] = target: endogenous rat PS proteins in rat hippocampal membranes; experiment: cell-based or functional assay

Sequence of human G-protein GαoA (P09471 2-354): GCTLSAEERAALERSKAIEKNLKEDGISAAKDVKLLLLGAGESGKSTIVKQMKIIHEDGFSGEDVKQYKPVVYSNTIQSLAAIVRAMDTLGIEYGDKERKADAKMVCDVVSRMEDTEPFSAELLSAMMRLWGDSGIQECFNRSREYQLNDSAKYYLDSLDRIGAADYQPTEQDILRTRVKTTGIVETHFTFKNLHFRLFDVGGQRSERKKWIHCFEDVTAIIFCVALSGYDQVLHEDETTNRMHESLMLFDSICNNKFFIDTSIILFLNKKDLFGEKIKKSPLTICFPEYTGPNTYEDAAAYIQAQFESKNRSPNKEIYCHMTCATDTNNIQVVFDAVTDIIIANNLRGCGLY
Sequence of soluble ectodomain of human β-APP, baculovirus-derived (P05067 18-701): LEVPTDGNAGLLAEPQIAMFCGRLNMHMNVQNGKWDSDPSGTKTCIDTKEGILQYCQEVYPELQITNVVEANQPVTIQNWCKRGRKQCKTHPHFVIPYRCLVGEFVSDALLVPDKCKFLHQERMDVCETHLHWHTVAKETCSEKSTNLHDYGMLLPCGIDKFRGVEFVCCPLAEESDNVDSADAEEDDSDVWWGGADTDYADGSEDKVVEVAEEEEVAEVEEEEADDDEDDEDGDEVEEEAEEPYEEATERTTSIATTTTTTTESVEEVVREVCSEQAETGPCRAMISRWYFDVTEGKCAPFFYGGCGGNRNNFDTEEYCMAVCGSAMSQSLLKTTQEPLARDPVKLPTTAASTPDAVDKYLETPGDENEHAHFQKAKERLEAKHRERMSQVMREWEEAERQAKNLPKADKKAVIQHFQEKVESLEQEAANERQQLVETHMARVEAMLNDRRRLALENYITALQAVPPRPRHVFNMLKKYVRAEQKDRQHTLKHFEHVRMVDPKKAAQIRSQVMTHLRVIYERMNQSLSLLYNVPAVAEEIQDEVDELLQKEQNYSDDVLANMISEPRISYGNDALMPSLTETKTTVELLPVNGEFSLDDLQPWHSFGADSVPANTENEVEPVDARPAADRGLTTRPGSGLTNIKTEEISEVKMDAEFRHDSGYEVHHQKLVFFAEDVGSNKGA

Work on “full-length human β-amyloid precursor protein (from UniProt P05067 18-770) (ligand)” yielded a ^35S-GTPγS incorporation (Gαo immunoprecipitated with K-20), high density co-culture (% increase over basal) [1] of 200, a ^35S-GTPγS incorporation (Gαo immunoprecipitated with K-20), high density co-culture with PTx (% lower than basal) [1] of 38 and a ^35S-GTPγS incorporation (Gαo immunoprecipitated with K-20), low density co-culture (% increase over basal) [1] of 33.

In the case of “human G-protein GαoA (from UniProt P09471 2-354)”, the fold increase in ^35S-incorporation immunoprecipitated with antibody to PS-1 [2] is reported as 8 fold, the ^35S-GTPγS incorporation, % of untransfected control [3] is reported as 700% and the % increase in ^35S-GTPγS binding over untransfected control [4] is reported as 700%.

“soluble ectodomain of human β-APP, baculovirus-derived (from UniProt P05067 18-701) (ligand)” showed a ^35S-GTPγS incorporation (Gαo) in PS-1-only APP-/- fibroblasts [1] of 500 % increase, a ^35S-GTPγS incorporation in solubilized rat hippocampal membranes [5] of 600 % increase and a ^35S-GTPγS incorporation in solubilized rat hippocampal membranes (% greater than untreated) [5] of 100.
